Literature values in paper PMC7005313.

Target: Tyr99 (UniProt position 100, KDGNGYISAAE)
Test: fluorescence
Conditions: not stated (the title of the cited paper refers to calcium and pH dependence)

## Calmodulin (bovine testes) (Bos taurus)
  pKa: as low as 7.0
